From US20060121462A1, “Receptor and screening methods” (priority 2003, published 2006)

Experiments:
[1] = target: T1, C5L2 (Homo sapiens, UniProt Q9P296); test: Degranulation (β-hexosaminidase) and enhancement of IgE-receptor-mediated degranulation, C5L2-transfected RBL cells; type: cell-based; conditions: enhancement of IgE-mediated degranulation, FIG. 3A
T1 construct: expressed in transfected cells

[2] = target: T2, CD88 (Homo sapiens, UniProt P21730); test: Degranulation of CD88-transfected RBL cells; type: cell-based; conditions: RBL cells transfected with CD88; data not shown
T2 construct: expressed in transfected cells
T2 sequence (P21730 1-350): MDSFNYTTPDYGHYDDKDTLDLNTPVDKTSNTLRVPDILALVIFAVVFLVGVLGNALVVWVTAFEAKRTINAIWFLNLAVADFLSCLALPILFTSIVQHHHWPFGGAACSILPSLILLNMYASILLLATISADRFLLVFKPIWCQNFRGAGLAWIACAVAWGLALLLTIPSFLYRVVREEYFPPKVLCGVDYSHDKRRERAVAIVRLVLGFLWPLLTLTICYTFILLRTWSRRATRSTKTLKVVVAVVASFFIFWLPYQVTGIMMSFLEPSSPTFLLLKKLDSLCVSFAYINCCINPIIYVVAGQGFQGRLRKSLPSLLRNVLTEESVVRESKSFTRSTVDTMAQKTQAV

[3] = target: T1, C5L2; test: Competition binding with 125I-C3a, C5L2-transfected RBL cells; conditions: FIG. 1A
Procedure: (§1) FIG. 1 illustrates C3a des-Arg^77 and C4a des-Arg^77 bind to RBL cells expressing C5L2. RBL cells transfected with C5L2 were incubated with the stated concentrations of complement fragments for 10 min prior to the addition of 50 pM ^125I-C3a (A) or 50 pM ^125I-C5a (B). Results are the means of n (n shown in Table 1) separate experiments performed in duplicate±S.E.;
(§2) C5L2, C3aR and CD88-transfected RBL cells were produced as described (17). G16 was cloned from human monocytes mRNA and authenticated by sequencing. Human G16 and either C5L2 or CD88 were ligated into the bicistronic expression vector pIRES (Qiagen). Stable transfection of RBL-2H3 cells with pIRES constructs was achieved by electroporation (18). Cells underwent three rounds of fluorescence-activated cell sorting using anti-CD88 antibody (clone S5/1; Serotec) or anti-hemagglutinin peptide antibody (Roćhe Molecular Biochemicals, clone 12CA5), selecting the top 5% of receptor-positive cells in each round.
(§3) Competition binding assays were performed using 50 pM ^125I-C5a or ^125I-C3a (NEN) on adherent C5aR-transfected or C5L2-transfected RBL cells in 96-well microtiter plates (55 000/well) at 4° C. as described previously (22). Competition curves were generated by pre-incubating adherent cells with increasing concentrations of unlabelled complement fragments. […]

[4] = target: T2, CD88; test: Radiolabelled ligand competition receptor binding, CD88-transfected RBL cells
Excerpt: as §2
(§4) Competition binding assays were performed using 50 pM ^125I-C5a or ^125I-C3a (NEN) on adherent C5aR-transfected or C5L2-transfected RBL cells in 96-well microtiter plates (55 000/well) at 4° C. as described previously (22). Competition curves were generated by pre-incubating adherent cells with increasing concentrations of unlabelled complement fragments. The IC50, standard error values and linear regression analyses were obtained by using GraphPad Prism 2.0.

[5] = target: T1, C5L2; test: Competition binding with 125I-C5a, C5L2-transfected RBL cells
Procedure: as §1, §2, §3

[6] = target: T3, C3aR (Homo sapiens, UniProt Q16581); test: Degranulation of C3aR-transfected RBL cells; type: cell-based; conditions: RBL cells transfected with C3aR; data not shown
T3 construct: expressed in transfected cells
T3 sequence (Q16581 1-482): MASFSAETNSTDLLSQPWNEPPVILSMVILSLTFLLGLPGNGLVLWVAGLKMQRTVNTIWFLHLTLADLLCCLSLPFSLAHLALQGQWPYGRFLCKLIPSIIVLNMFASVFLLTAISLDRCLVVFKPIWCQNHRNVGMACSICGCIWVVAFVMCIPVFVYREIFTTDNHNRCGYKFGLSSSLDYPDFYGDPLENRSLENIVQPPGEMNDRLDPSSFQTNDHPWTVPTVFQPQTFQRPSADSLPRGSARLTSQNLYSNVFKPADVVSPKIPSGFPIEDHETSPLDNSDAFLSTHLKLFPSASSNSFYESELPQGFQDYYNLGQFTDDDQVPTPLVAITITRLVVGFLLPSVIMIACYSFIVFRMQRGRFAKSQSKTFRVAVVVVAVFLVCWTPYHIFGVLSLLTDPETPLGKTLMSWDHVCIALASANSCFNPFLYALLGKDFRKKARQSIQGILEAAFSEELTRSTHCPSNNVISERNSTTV
Procedure: Cellular activation was measured as the release of -hexosaminidase from intracellular granules (20). In the enhancement of degranulation assay, cells were treated with 1 μg/ml IgE^DNP (21) overnight, then with chemoattractants or peptides for 10 min prior to stimulation with 100 ng/ml DNP-HSA (Sigma) for 15 minutes. EC50 and standard error values were obtained by iterative curve fitting using GraphPad Prism 2.0.

[7] = target: T3, C3aR; test: Radiolabelled ligand competition receptor binding, C3aR-transfected RBL cells; conditions: C3aR expressed in RBL cells; competition binding
Excerpt: as §2, §4

[8] = target: T4, C5L2+Gα16 (Homo sapiens, UniProt Q9P296); type: cell-based; conditions: C5L2+Gα16 cells after 10 ng/ml PT, FIG. 4D
T4 construct: inferred from the sorting antibody; expressed in transfected cells
T4 sequence (Q9P296 whole entry): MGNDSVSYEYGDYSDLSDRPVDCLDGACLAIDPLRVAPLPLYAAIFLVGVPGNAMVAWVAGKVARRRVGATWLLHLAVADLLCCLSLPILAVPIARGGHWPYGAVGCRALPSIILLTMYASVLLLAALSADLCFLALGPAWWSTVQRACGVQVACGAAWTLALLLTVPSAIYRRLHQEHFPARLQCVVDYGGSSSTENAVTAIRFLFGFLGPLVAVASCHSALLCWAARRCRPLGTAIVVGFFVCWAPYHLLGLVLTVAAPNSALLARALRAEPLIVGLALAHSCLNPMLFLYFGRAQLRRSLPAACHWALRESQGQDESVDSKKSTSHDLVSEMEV

T1 sequence (Q9P296 whole entry): as above

B1: C5a des-Arg^74 (protein)
chain: TLQKKIEEIAAKYKHSVVKKCCYDGACVNNDETCEQRAARISLGPRCIKAFTECCVVASQLRANISHKDMQLG
modifications: left off: small tags and cut ends
notes: desarginated metabolite of complement fragment C5a
In the case of B1, the agonist character [1] is reported as “only a partial agonist”.

B2: C4a des-Arg^77 (protein)
chain: NVNFQKAINEKLGQYASPTAKRCCQDGVTRLPMMRSCEQRAARVQQPDCREPFLSCCQFAESLRKKSRDKGQAGLQ
notes: desarginated metabolite of complement fragment C4a
In the case of B2, the stimulation of degranulation [2] is reported as “neither C3a des-AXg^77 nor C4a des-Arg^77 can stimulate degranulation”, the “competition with ^125I-C3a for C5L2 binding” value [3] is reported as “can compete strongly” and the “competition with ^125I-C5a binding to CD88” value [4] is reported as “cannot compete effectively”. The IC50 ([5]; C5L2 (^125I-C5a) expressed in RBL cells, 50 pM radioligand) was 17 µM, the “competition with ^125I-C5a binding to C5L2” value ([5]; FIG. 1B) was “cannot compete effectively” and the stimulation of degranulation [6] was “neither C3a des-AXg^77 nor C4a des-Arg^77 can stimulate degranulation”. The IC50 [7] was 10 µM.

B3: C4a: complement fragment of C4 (protein)
chain: NVNFQKAINEKLGQYASPTAKRCCQDGVTRLPMMRSCEQRAARVQQPDCREPFLSCCQFAESLRKKSRDKGQAGLQR
In the case of B3, the “enhancement of degranulation response to IgE receptor cross-linking” value [8] is reported as “inactive”.
